# Assay results as given in the RNAGym collection of RNA variant scans (doi:10.1073/pnas.2313332121).
# B1: TPR t1 (parent)
# chain: GACCAAUCUGCCCUCAGAGCUCGAGAACAUCUUCGGAUGCAGAGGAGGCAGGCUUCGGUGGCGCGAUAGCGCCAACGUCCUCAACCUCCAAUGCAUCCCACCACAUGAUGAUGCCUGAAGAGCCUUGGUUUUUUG
# Variants of: B1
# Test: polymerase ribozyme fitness, log enrichment relative to wild type (log ratio); higher = more active; in vitro selection for triplet polymerase activity
# In short: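 The heterodimeric triplet polymerase ribozyme's subunits were each mutagenized into PCR-built libraries and transcribed. Every library was selected once, in triplicate, by annealing with a biotinylated primer, the partner subunit and triplets, incubating frozen at −7 °C, gel-excising extended constructs, capturing on streptavidin beads and running RT-PCR. Input and output libraries were Illumina-sequenced, with genotypes kept only at ≥10 input reads and ≥1 read per output. Fitness, from inverse-variance-weighted replicate averages, is the base-2 logarithm of genotype enrichment over wild-type enrichment.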
row,Variant,polymerase ribozyme fitness (log ratio)
1,GACCAAUCUGCCCUCAGAGCUCGAGAACAUCUUCGGAUGCAGAGGAGGCAGACUUCGGUGGCGCGAUAGCGCCAACGUCCUCAACCUCCAAUGCAUCCCACCACAUGAUGAUGCCUGAAGAGCCUUGGUCUUUUG,-0.159
2,GACCAAUCUGCCCUCAGAGCUCGAGAACAUCUUCGGAUGCAGAGGAGGCAGGCUUCGGUGGCGCGAUAGCGUCAACGUCCUCAACCUCCAAUGCAUCCCACCACAUGAUGACGCCUGAAGAGCCUUGGUUUUUUG,1.19
3,GACCAAUCAGCCCUCAGAGCUCGAGAACAUCUUCGGAUGCAGAGGAGGCAGGCUUCGGUGGCGCGAUAGCGCCAACGUCCUCAACCUCCAAUGCAUCCCACCACAUGAUGAUGCCUGAAGAACCUUGGUUUUUUG,0.926
4,GACCAAUCUUCCCUCAGAGCUCGAGAACAUGUUCGGAUCCAGAGGAGGCAGGCUUCGGUGGCGUGAUAGCGCCAACGUCCUCAACCUCCAAUGCAUCCCACCACAUGAUAAUUCCUGAAGAGCCUUGGUUUUUUG,-6.42
5,GACCAAUCUGUCCUCAGAGCUCGAGAACAUCUUCGGAUGCAGAGGUGGCAGGCUUCGGUGGCGCGAUAGCGCCAACGUCCUCAACUUCCAAUGCAUCCCACCACAUGAUGAUGCCUGAAGAGCCUUGGUUUUUUG,-2.1
6,GACCAAUCUGCCCUCAGAGCUCGAGAACAUCUUCGGAUGCAGAGGAGGCAGGCUUCGGUAGCGCGAUAGCGCCAACAUCCUGAACCUCCAAUGCAUCCCACCACAUGAUGAUGCCUGAAGAGCCUUGGUUUUUUG,-0.994
7,GACCAAUCUGCCCUCAGUGCUCGAGAACAUCUUCGGAUGCAGAGGAGGCAGGCUUCGGUGGCGCGAUAGCGCCCACGUCCUCAACCUCCUAUGCAUCCCACCACAUGAUGAUGCCUGAAGCGCCUUGGAUUUUUG,-1.29
8,GACCAAUCUGCCCUCAGAGCUCGAGAACAUCUUCGGAUGCAGAGGAGGCAGGCUUCGGUGGCGCGAUAGCGCCAACGUCCUCAACCUCCAAUGCAUCCCACCACAUGGUGAUGCCUGAAGAGCCUUGGUUUUUUG,-1.19
9,GACCAAUCUGCCCUCAGAGCUCGAGAACAUCUUCGGAUGCAGAGUAGGCAGGCUUAGGUGGCGCGAUAGCGCCAACGUCCUCAACCUCCAAUGCAUCCCACCACAUGAUGAUGCCUGAAGAGCCUUGGUUUUUUG,-2.01
10,GACCAAACUGCCCUCAGAGCUCGAGAACAUCUUCGGAUGCAGAGGAGGCAGGCUUCGGUGGCGCGAUACCGCCAACGUCCUCAACCUCCAAUGCGUCCCACCACAUGAUGAUGCCUGAAGAGCCUUGGUUUUUUG,-0.796
11,GACCAAUCUGCCCUCAGAGCUCGAGAACAUCUUCGGAUGCAGAGGAGGCAGGCUUCGGUGGCGCGAAAGCGCCUACGUCCUCAACCUCCAAUGGAUCCCAACACAUGAUGAUCCCUGAAGAGCCUUGGUUUUUUG,-7.83
12,GACCAAUCUACCCUCAGACCUCGAGAACAUCUUCGGAUGCAGAGGAGGCAGGCUUCGGUGGCCCGAUAGCGCCAACGUCCUCAACCUCCAAUGCAUCCCACCACAUGAUGAGGCCUGAAGAGCCUUGGUUUUGUG,-5.97
13,GACCAAUCUGCUCUCAGAGCUCGAGAACAUCUUCGGAUGCAGAGGAGGCAGGCUUAGGUGGCGCGAUAGCGCCAACGUCCUCAACCUCCAAUGCAUCCCACCACAUGAUGAUGCCUGAAGAGCCUUGGUUUUUUG,-0.454
14,GACCAAUCUGCCCUCAGAGCUCGAGAACAUCUUCGGAUGCAGAAGAGGCAGGCUUUGGUGGCGCGAUAGCGUCAACGUCCUCAACCUCCAAUGCAUCCCACCACAUGAUGAUGCCUGAAGAGCCUUGGUUUUUUG,-2.35
15,GACCAAUCUGCCCUCAGAGCUCGAGAACAUCUUCGGAUGCAGAGGGGGCAGGCUUCGGUGGCGCGAUAGCGCCAACGUCCUCAACCUUCAAUGCAUACCACCACAUGAUGAUGCCUGAAGAGCCUUGGUUUUUUG,-5.17
16,GACCAAUCUGCCCUCAGAGCUCGAGAACAUCUUCGGAUGCAUAGGAGGCAGGCUUCGGUGGCGCGAUAGCGCCAACGUCCUCAACCUCCAAUGCAUCCCACCACAUGAUGAUGCCUGAAGCGCCUUGGUUUUUUG,0.464
17,GACCAAUCUGCCCUCAGAGCUCGAGAACAUCUUCGGAUGCAGAGGAGGCAGUCUUCGGUAGCGCGAUAACGCCAACGUCCUAAACCUCCAAUGCAUCCCACUACAUGAUGAUGCCUGAAGAGGCUUGGUUUUUUG,-6.73
18,GACCAAUCUGCCCUCAGAGCUCGAGAACGUCUUCGGAUGCAGAGGAGGCAGGCUUGGGUGGCGCGAUAGCGCCAACGUCCUCAACCUCCAAUGCAUCCCACCACAUGAUGAUGCCUGAAGAGCCUUGGUUUUUUG,-1.53
19,GACCAAUCUGCCCUCAGAGCUCGAGAACAUCUUCGGAUGCACAGGAGGCAGGCUUCGGUGGCGCGAUAGCGCCAACGUCCUCAACCUCCAAUGCAGCCCACCACAUGAUGAUGCCUGAAGAGCCUUGGUUUUUUG,-1.41
20,GACCAAUCUGCACUCAGAGCUCGAGAACAUCUUCGGAUGCAGAGGAGGCAGGCUUCGGUGGCGCGAUAGCGCCAACGUCCUCAACCUCCAAUGCAUCCCACCACAUGAUGAUGCCUGAAGAACCUUGGUUUUUUG,-0.788
21,GACCAAUCUGCCCUCCGAGCUCGAGAACAUCUUCGGAUGCAGAGGAGGCAGGCUUCGGUGGCGCGAUAGCCCCAACGUCCUCAACCUCCAAUGCAUCCCACCACAUGAUGAUGCCUGAAGAGCCUCGGUUAUUUG,-4.45
